Assay results reported in US20240376207A1 (JIANGSU HENGRUI PHARMACEUTICALS, published 2024).
Where two headings read alike, the source gives them in different places.

T1: his-tagged cynomolgus monkey PVRIG (cyno-PVRIG-his) recombinant protein (cynomolgus monkey)
T1 construct: expressed in HEK293, purified by Ni-NTA; also called Monkey PVRIG-his; cynomolgus monkey PVRIG recombinant protein
T1 chain: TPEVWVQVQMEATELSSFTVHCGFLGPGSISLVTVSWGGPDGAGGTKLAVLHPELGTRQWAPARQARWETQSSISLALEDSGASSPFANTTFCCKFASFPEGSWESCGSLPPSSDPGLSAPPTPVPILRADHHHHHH

T2: human TIGIT recombinant protein (human, UniProt Q495A1 22-141, limits assumed)
T2 construct: construct not described; also called human TIGT recombinant protein
T2 sequence (looked up): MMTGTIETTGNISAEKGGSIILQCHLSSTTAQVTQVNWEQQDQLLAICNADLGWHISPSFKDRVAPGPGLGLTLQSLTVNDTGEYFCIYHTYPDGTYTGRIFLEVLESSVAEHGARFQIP

T3: human TIGIT expressed on cells (human, UniProt Q495A1 22-244)
T3 construct: whole, on cells; also called cells overexpressing human TIGIT
T3 sequence (looked up): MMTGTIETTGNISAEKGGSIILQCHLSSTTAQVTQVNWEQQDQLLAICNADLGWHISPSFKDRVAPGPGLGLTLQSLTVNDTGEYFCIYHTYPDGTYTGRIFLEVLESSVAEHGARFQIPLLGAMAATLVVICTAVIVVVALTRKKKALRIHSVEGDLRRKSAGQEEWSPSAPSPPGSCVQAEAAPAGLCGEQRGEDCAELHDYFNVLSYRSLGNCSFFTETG

T4: cynomolgus monkey PVRIG expressed on cells (cynomolgus monkey, UniProt A0A2K5WVV8 1-322)
T4 construct: whole, on cells; also called Monkey PVRIG FACS; cells overexpressing cynomolgus monkey PVRIG
T4 sequence: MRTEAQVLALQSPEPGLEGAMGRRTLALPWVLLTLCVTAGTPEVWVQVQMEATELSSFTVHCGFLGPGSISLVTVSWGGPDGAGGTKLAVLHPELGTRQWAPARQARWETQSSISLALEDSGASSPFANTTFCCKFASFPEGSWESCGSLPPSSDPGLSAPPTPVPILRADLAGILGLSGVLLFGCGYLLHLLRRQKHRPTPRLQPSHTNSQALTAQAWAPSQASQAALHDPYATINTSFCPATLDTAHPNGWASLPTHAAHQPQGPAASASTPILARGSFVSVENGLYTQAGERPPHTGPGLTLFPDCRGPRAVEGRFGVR

T5: his-tagged human PVRIG (h-PVRIG-his) recombinant protein (human, UniProt Q6DKI7 41-171, limits assumed)
T5 construct: bought from Acrobiosystems; also called Human PVRIG-his; human PVRIG recombinant protein; not shown: his tag
T5 sequence (looked up): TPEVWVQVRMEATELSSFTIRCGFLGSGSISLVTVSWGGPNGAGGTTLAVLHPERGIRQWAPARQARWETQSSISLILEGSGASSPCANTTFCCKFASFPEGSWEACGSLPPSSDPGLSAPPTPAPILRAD

T6: human PVRIG expressed on cells (human, UniProt Q6DKI7 41-326)
T6 construct: whole, on cells; also called Human PVRIG FACS; cells overexpressing human PVRIG
T6 sequence (looked up): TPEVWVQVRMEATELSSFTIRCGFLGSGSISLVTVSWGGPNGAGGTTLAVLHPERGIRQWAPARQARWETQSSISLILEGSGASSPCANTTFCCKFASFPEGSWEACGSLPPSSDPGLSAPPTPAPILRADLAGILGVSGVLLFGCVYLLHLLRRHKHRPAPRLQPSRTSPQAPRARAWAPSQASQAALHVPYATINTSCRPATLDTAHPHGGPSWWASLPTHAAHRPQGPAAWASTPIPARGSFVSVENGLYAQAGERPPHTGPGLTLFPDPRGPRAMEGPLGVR

T7: mouse IgG2a Fc-tagged human PVRIG (h-PVRIG-mIgG2a Fc) recombinant protein (human, UniProt Q6DKI7 41-171, limits assumed)
T7 construct: bought from Acrobiosystems; not shown: mouse IgG2a Fc tag
T7 sequence (looked up): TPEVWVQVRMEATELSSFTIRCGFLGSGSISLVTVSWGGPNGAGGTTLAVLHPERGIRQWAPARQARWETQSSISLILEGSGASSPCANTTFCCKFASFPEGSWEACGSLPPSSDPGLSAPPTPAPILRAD

T8: human PVRIG antigen (AcroBiosystem, PVG-H52H4) (human, UniProt Q6DKI7 41-171, limits assumed)
T8 sequence (looked up): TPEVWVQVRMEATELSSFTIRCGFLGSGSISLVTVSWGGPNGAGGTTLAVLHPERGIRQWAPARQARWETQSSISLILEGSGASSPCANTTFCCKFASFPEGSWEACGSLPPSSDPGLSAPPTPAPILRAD


Tests used:
[1] = target: T1, his-tagged cynomolgus monkey PVRIG …; test: ELISA, coated antigen
Protocol: (§1) A human, cynomolgus monkey, or mouse PVRIG protein (at a concentration of 1 μg/mL) was coated on a 96-well microplate at 100 μL per well, and incubated overnight at 4° C. The plate was washed three times with wash buffer at 250 μL per well. For each wash, the plate was shaken for 10 s to ensure adequate cleaning. A blocking solution (PBS+0.05% Tween20+1% BSA) was added at 300 μL/well, and the plate was incubated at room temperature for 1 h. The plate was washed three times with wash buffer at 250 μL per well. For each wash, the plate was shaken for 10 s to ensure adequate cleaning. Dilutions of the test anti-PVRIG antibodies were added at 100 μL/well. The plate was incubated at 37° C. for 1 h. The plate was washed three times with wash buffer at 250 μL per well. The […] anti-human IgG secondary antibody (Sigma, A8667) was added at 100 μL per well. The plate was incubated at 37° C. for 1 h. The plate was washed three times with wash buffer at 250 μL per well. TMB was added at 100 μL/well, and the plate was incubated in the dark for 15 min. 0.16 M sulfuric acid was added at 50 μL/well. The OD values at 450 nm were read by using a Thermo MultiSkanFc microplate reader, and the EC₅₀ values of the binding of the anti-PVRIG antibodies to PVRIG were calculated.
(§2) Binding of the humanized anti-PVRIG/TIGIT bispecific antibodies to human and cynomolgus monkey PVRIG and their blocking of the ligand of human PVRIG were detected according to the methods of Examples 4, 5 and 6.

[2] = target: T2, human TIGIT recombinant protein; test: ELISA, coated antigen
Protocol: as §1
(§3) Similarly to Examples 4, 5 and 6, the binding of humanized anti-PVRIG/TIGIT bispecific antibodies to human and cynomolgus monkey TIGIT and blocking of binding of human TIGIT to ligand were detected, where PVRIG protein was replaced with TIGIT and PVRL2 was replaced with PVR.

[3] = target: cynomolgus monkey TIGIT recombinant protein (cynomolgus monkey, UniProt A0A7N9I9V4 89-209); test: ELISA, coated antigen
Protocol: as §1, §3

[4] = target: T9, cynomolgus monkey TIGIT expressed on cells (cynomolgus monkey, UniProt A0A7N9I9V4 89-312); test: FACS, cells overexpressing target
T9 construct: whole, on cells; also called cells overexpressing cynomolgus monkey TIGIT
Protocol: (§4) The expression plasmid carrying human or cynomolgus monkey PVRIG gene sequence was transfected into HEK293 cells, and the over-expressing stable transfection monoclonal cell strain was obtained by antibiotic screening and infinite dilution. Overexpressing cells were seeded into a 96-well plate at 2×10⁵ cells/per well. The cells were centrifuged at 300 g for 5 min, the supernatant was then removed, 100 μL of the test antibody was added, and the mixture was incubated at 4° C. for 1 h. The mixture was centrifuged, the supernatant was removed, the plate was washed 3 times with 200 μL of wash buffer (PBS+2% FBS), and then 100 μL of an anti-human IgG secondary antibody (Invitrogen, A-11013) labeled with Alexa Fluor 488 diluted at 1:500 was added. The mixture was incubated at 4° C. for 1 h. The plate was centrifuged, and the supernatant was removed. The plate was washed 3 times with 200 μL of wash buffer (PBS+2% FBS). The cells were resuspended in 100 μL of PBS and tested on a flow cytometer (BD FACS Calibur or BD FACS Canto_II).
as §3

[5] = target: T3, human TIGIT expressed on cells; test: FACS, cells overexpressing target
Protocol: as §4, §3

[6] = target: T4, cynomolgus monkey PVRIG expressed on …; test: FACS, cells overexpressing target
Protocol: as §4, §2

[7] = target: T3, human TIGIT expressed on cells; test: FACS, cells overexpressing target; remark: listed apart in the source
Protocol: as §4
(§5) The experiments were carried out according to the methods of Example 4, Example 5 and Example 6 (corresponding receptors and ligands were replaced with human TIGIT and human PVR), and the results are shown in Table 27.

[8] = target: T2, human TIGIT recombinant protein; test: ELISA, coated antigen; remark: listed apart in the source
Protocol: as §1, §5

[9] = target: T2, human TIGIT recombinant protein; test: competition ELISA; human TIGIT, competitor human PVR
Protocol: (§6) The h-PVRIG-mIgG2a Fc protein (at a concentration of 1 μg/mL) was coated on the 96-well microplate at 100 μL per well, and incubated overnight at 4° C. The plate was washed three times with wash buffer at 250 μL per well. For each wash, the plate was shaken for 10 s to ensure adequate cleaning. A blocking solution was added at 300 μL/well, and the plate was incubated at room temperature for 1 h. The plate was washed three times with wash buffer at 250 μL per well. For each wash, the plate was shaken for 10 s to ensure adequate cleaning. 50 μL of diluted test anti-PVRIG antibody and 50 μL of his-tagged ligand PVRL2 were added to each well, and the plate was incubated at 37° C. for 1 h. The plate was washed three times with wash buffer at 250 μL per well. The HRP-labeled anti-his-tagged secondary antibody (Genscrpit) diluted at 1:2000 was added at 100 μL per well. The plate was incubated at 37° C. for 1 h. The plate was washed three times with wash buffer at 250 μL per well. TMB was added at 100 μL/well, and the plate was incubated in the dark for 15 min. 0.16 M sulfuric acid was added at 50 μL/well. OD values at 450 nm were measured using a Thermo MμtLtiSkanFc microplate reader, and the IC₅₀ values of the anti-PVRIG antibodies blocking the binding of PVRIG to PVRL2 were calculated.
as §3

[10] = target: T2, human TIGIT recombinant protein; test: as above; remark: listed apart in the source
Protocol: as §6, §5

[11] = target: T5, his-tagged human PVRIG (h-PVRIG-his) …; test: ELISA, coated antigen
Protocol: as §1, §2

[12] = target: T6, human PVRIG expressed on cells; test: FACS, cells overexpressing target
Protocol: as §4, §2

[13] = target: T7, mouse IgG2a Fc-tagged human PVRIG …; test: competition ELISA; human PVRIG coated, competitor human PVRL2
Protocol: as §6, §2

[14] = target: T8, human PVRIG antigen (AcroBiosystem, …); test: SPR (Biacore X100), antibody captured on Protein A chip, 1:1 fit
From the text: The affinity of the humanized bispecific antibodies for human PVRIG, cynomolgus monkey PVRIG and human TIGIT was detected using Biacore. Humanized bispecific antibodies were each captured on a Protein A biosensor chip (GE lifesciences, 29127557) of a Biacore instrument (Biacore X100, GE), and then human PVRIG antigen (AcroBiosystem, PVG-H52H4), cynomolgus monkey PVRIG antigen (SEQ ID NO: 1), or human TIGIT antigen (AcroBiosystem, TIT-H52H3) at a series of concentration gradients each flowed over the chip surface. The reaction signals were detected in real time using a Biacore instrument (Biacore X100, GE) to obtain association and dissociation curves. The data obtained from the experiment were fitted using the (1:1) Binding model with the BiacoreX100 evaluation software 2.0 GE to obtain affinity values (see Table 31).

cynomolgus monkey TIGIT recombinant protein, sequence (A0A7N9I9V4 entry or part of it): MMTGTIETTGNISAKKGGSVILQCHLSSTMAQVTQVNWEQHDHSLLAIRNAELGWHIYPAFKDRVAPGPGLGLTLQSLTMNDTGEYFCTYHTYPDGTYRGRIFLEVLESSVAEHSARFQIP
T9 sequence (A0A7N9I9V4 entry or part of it): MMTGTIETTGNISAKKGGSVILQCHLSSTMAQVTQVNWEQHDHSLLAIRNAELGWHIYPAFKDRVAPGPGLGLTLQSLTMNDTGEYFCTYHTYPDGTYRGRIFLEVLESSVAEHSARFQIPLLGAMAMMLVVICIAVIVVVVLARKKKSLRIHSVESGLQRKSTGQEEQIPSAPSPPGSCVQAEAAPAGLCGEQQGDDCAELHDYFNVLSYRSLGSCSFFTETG

Row | binding result [1] | EC50 [2] [nM] | EC50 [3] [nM] | EC50 [4] [nM] | EC50 [5] [nM] | binding result [6] | EC50 [7] [nM] | EC50 [8] [nM] | IC50 [9] [nM] | IC50 [10] [nM] | EC50 [1] [nM] | EC50 [11] [nM] | EC50 [6] [nM] | EC50 [12] [nM] | IC50 [13] [nM] | Kd [14] [nM] | koff [14] [s⁻¹] | kon [14] [M⁻¹ s⁻¹] | Binder
1 | no binding | 0.133 | 0.104 | 0.003 | 0.0027 | no binding | 0.74 | 0.055 | 0.779 | 0.87 | – | – | – | – | – | – | – | – | anti-TIGIT antibody 1708 (antibody, human IgG4 S228P, kappa, V domains shown, human IgG4 subtype with S228P; kappa light chain) VH: EVQLVQSGAEVKKPGASVKVSCKASGYTFTNYWMHWVRQAPGQGLEWMGRIDPDSTGSKYNEKFKTRVTMTRDTSTSTVYMELSSLRSEDTAVYYCAREGAYGYYFDYWGQGTLVTVSS VL: DIQMTQSPSSLSASVGDRVTITCRASENIYSYLAWYQQKPGKSPKLLIYNARTLAEGVPSRFSGSGSGTDFTLTISSLQPEDFATYYCQYHSGSPLPFGGGTKVEIKR
2 | – | – | 0.119 | 0.012 | – | – | – | – | – | – | 9.44 | 0.679 | 11.5 | 0.043 | 0.598 | 0.125 | 0.000757 | 6.06e+06 | humanized anti-PVRIG/TIGIT bispecific antibody 1708-151H7 (bispecific antibody, human IgG4 S228P, kappa) heavy: not shown light: DIQMTQSPSSLSASVGDRVTITCRASENIYSYLAWYQQKPGKSPKLLIYNARTLAEGVPSRFSGSGSGTDFTLTISSLQPEDFATYYCQYHSGSPLPFGGGTKVEIKRTVAAPSVFIFPPSDEQLKSGTASVVCLLNNFYPREAKVQWKVDNALQSGNSQESVTEQDSKDSTYSLSSTLTLSKADYEKHKVYACEVTHQGLSSPVTKSFNRGEC
